Where two headings read alike, the source gives them in different places.
Columns and labels:
[1] = target: T1, human insulin receptor (IR) on human IM-9 cells (human, UniProt P06213 28-1382); assay: competition with biotinylated RHI on IM-9 cells, flow cytometry, 4 C
T1 construct: whole, on cells; also called human IR
Method: (§1) 40 µL of an IM-9 cell suspension (8×10⁶ cells/mL) was then added to each well by multichannel pipette, mixed again gently and incubated on ice for 30 min to allow competitive binding on the IR on IM-9 cells. Cells were then washed twice with 275µL of ice-cold FACS wash buffer (HBSS/2mM EDTA/0.1% Na-azide + 0.5% horse serum) by centrifuging the V-bottom plate at 3000 rpm for 3 min and aspirating the supernatant. Cells were then resuspended in 40µL of FACS staining medium containing 1:100 diluted Streptavidin-PE (Life Technologies) for 20 min on ice. Cells were then washed once with 275 µL of ice-cold FACS buffer and finally fixed with 3% paraformaldehyde for 10 min at room temp. Cells were then washed once with 275 µL of ice-cold FACS buffer and resuspended in 250µl of FACS buffer for analysis.
Next, the insulin-Fc fusion protein of SEQ ID NO: 76 was evaluated for the potential for in vivo bioactivity.

biotinylated human FcRn = target: T2, biotinylated human FcRn (human, UniProt P55899 24-297; P61769 21-119, limits assumed, biotinylated, site not stated); assay: ELISA pH 5.5, fusion protein coated, biotinylated human FcRn titrated
T2 construct: Bought reagent (Immunitrack); composition not described; also called human FcRn receptor
Method: Insulin-Fc fusion proteins comprising Fc fragments were diluted to 10 µg/mL in sodium bicarbonate pH 9.6 buffer and coated in duplicate on Maxisorb ELISA plate strips for 1-2 hours at RT. The strips were then washed 5 times with PBST (PBS/0.1% Tween-20) buffer and blocked with Superblock blocking reagent (ThermoFisher). Strips for FcRn binding were then washed again 3 times with pH 5.5 MES/NaCl/Tween (50 mM MES/150mM NaCl/0.1% Tween-20) buffer before addition of the FcRn reagent (biotinylated human FcRn; Immunitrack). Serial dilutions (1:3X dilutions) of biotinylated FcRn reagent were prepared in pH 5.5 MES/NaCl/Tween/5%Superblock buffer at concentrations from 6000 ng/mL to 8.23 ng/mL and loaded at 100 µL/well using a multichannel pipettor onto the strips coated with the insulin-Fc fusion protein compounds. The assay plate was then incubated for 1.5 hours at room temperature. FcRn binding strips were washed 4 times with pH 5.5 MES/NaCl/Tween buffer and then loaded with 100 µl/well streptavidin-HRP diluted 1:10000 in pH 5.5 MES/NaCl /5%Superblock buffer. After incubating for 45 minutes, strips were washed again 5 times with pH 5.5 MES/NaCl/Tween buffer. […] The plate was read in an ELISA plate reader at a wavelength of 450 nm. […] EC50 values for each binding curve were calculated to compare between different compounds.

[2] = target: T3, biotinylated recombinant human Fc(gamma)RI (human, UniProt P12314 16-288, biotinylated, site not stated); assay: ELISA, fusion protein coated, biotinylated rhFc(gamma)RI at 3000 ng/mL
T3 construct: Bought reagent; construct not described; also called rhFc(gamma)RI; Fc(gamma) receptor I
Method: The binding of insulin-Fc fusion proteins to the Fc(gamma)RI at pH 7.4 was conducted using an ELISA assay as follows using human Fc(gamma)RI (i.e., rhFc(gamma)RI). Insulin-Fc fusion proteins were diluted to 10 µg/mL in sodium bicarbonate buffer at pH 9.6 and coated on Maxisorp (Nunc) microtiter plates overnight at 4° C., after which the microplate strips were washed 5 times with PBST (PBS/0.05% Tween-20) buffer and blocked with Superblock blocking reagent (ThermoFisher). […] The plate was read in an ELISA plate reader at 450 nm, and the OD450 values (proportional to the binding of rhFc(gamma)RI to insulin-Fc protein) were plotted against log concentrations of rhFc(gamma)RI added to each well to generate binding curves using GraphPad Prism software. […] In order to compare differences across multiple insulin-Fc fusion proteins run at different times, the human Fc(gamma)RI assay OD450 Ratio was calculated as the OD450 value of a test insulin-Fc fusion protein compound obtained at a biotinylated-Fc(gamma)RI concentration of 3000 ng/mL, divided by the OD450 value of a reference insulin-Fc fusion protein of SEQ ID NO: 76 obtained at a biotinylated-Fc(gamma)RI concentration of 3000 ng/mL.

[3] = target: T4, biotinylated human complement component C1q (human, UniProt P02745 23-245; P02746 28-253; P02747 29-245, biotinylated, site not stated); assay: ELISA, fusion protein coated, biotinylated human C1q at 1000 ng/mL
T4 construct: also called biotinylated-C1q
Method: The binding of insulin-Fc fusion proteins to complement component C1q at pH 7.4 was conducted using an ELISA assay as follows using human complement component C1q. Insulin-Fc fusion proteins were diluted to 10 µg/mL in sodium bicarbonate buffer at pH 9.6 and coated on Maxisorp (Nunc) microtiter plates overnight at 4° C., after which the microplate strips were washed 5 times with PBST (PBS/0.05% Tween-20) buffer and blocked with Superblock blocking reagent (ThermoFisher). […] The plate absorbance was read in an ELISA plate reader at 450 nm (OD450), and the OD450 values (proportional to the binding of complement component C1q to insulin-Fc protein) were plotted against log concentrations of complement component C1q added to each well to generate binding curves using GraphPad Prism software. […] In order to further compare differences across multiple insulin-Fc fusion proteins run at different times, the human C1q assay OD450 Ratio was calculated as the OD450 of a test insulin-Fc fusion protein compound obtained at a biotinylated-C1q concentration of 1000 ng/mL, divided by the OD450 of a reference insulin-Fc fusion protein of SEQ ID NO: 76 obtained at a biotinylated-C1q concentration of 1000 ng/mL.

[4] = target: T1, human insulin receptor (IR) on human …; assay: competition with biotinylated RHI on IM-9 cells, flow cytometry, 4 C; remark: listed apart in the source
Method: as §1
(§2) The insulin-Fc fusion proteins were manufactured in HEK293 cells according to Example 1 and purified using a Protein A column according to Example 4. Their structures were confirmed according to Example 6 by non-reducing and reducing CE-SDS, and the sequences were further identified by LC-MS with glycan removal according to Example 8. Their %homodimer content was measured by size-exclusion chromatography according to Example 10, and their insulin receptor binding affinities were measured according to Example 12.

biotinylated canine FcRn = biotinylated canine FcRn (canine, UniProt A0A8I3PFR8 25-347, biotinylated, site not stated); assay: ELISA pH 5.5, fusion protein coated, biotinylated canine FcRn titrated
Method: Insulin-Fc fusion proteins comprising Fc fragments of canine origin were diluted to 10 µg/ml in sodium bicarbonate pH 9.6 buffer and coated in duplicate on Maxisorb ELISA plate strips for 1-2 hours at RT. The strips were then washed 4 times with PBST (PBS/0.1% Tween-20) buffer and blocked with Superblock blocking reagent (ThermoFisher). Strips for FcRn binding were then washed again twice with pH 5.5 MES/NaCl/Tween (50 mM MES/150mM NaCl/0.1% Tween-20) buffer before addition of the FcRn reagent (biotinylated canine FcRn; Immunitrack). Serial dilutions (1:3X dilutions) of biotinylated FcRn reagent were prepared in pH 5.5 MES/NaCl/Tween/10%Superblock buffer at concentrations from 1000 ng/ml to 0.45 ng/mL and loaded at 100 µL/well using a multichannel pipettor onto the strips coated with the insulin-Fc fusion protein compounds. The assay plate was then incubated for 1 hour at room temperature. FcRn binding strips were washed 4 times with pH 5.5 MES/NaCl/Tween buffer and then loaded with 100 µl/well streptavidin-HRP diluted 1:10000 in pH 5.5 MES/NaCl /10%Superblock buffer. After incubating for 45 minutes, strips were washed again 4 times with pH 5.5 MES/NaCl/Tween buffer. […] The plate was read in an ELISA plate reader at a wavelength of 450 nm. […] EC50 values for each binding curve were calculated to compare between different compounds.

[5] = target: T1, human insulin receptor (IR) on human …; assay: competition with biotinylated RHI on IM-9 cells, flow cytometry, 4 C; remark: listed apart in the source
Method: as §1, §2

[6] = target: T3, biotinylated recombinant human …; assay: ELISA, fusion protein coated, biotinylated rhFc(gamma)RI at 3000 ng/mL; remark: listed apart in the source
Method: The binding of insulin-Fc fusion proteins to the Fc(gamma)RI at pH 7.4 is conducted using an ELISA assay as follows using human Fc(gamma)RI (i.e., rhFc(gamma)RI). Insulin-Fc fusion proteins are diluted to 10 µg/mL in sodium bicarbonate buffer at pH 9.6 and coated on Maxisorp (Nunc) microtiter plates overnight at 4° C., after which the microplate strips are washed 5 times with PBST (PBS/0.05% Tween-20) buffer and blocked with Superblock blocking reagent (ThermoFisher). Serial dilutions of biotinylated rhFc(gamma)RI (recombinant human Fc(gamma)RI; R&D Systems) are prepared in PBST/10% Superblock buffer from 3000 ng/mL to 4.1 ng/mL and loaded at 100 µL/well onto the microplate strips coated with insulin-Fc fusion protein. The microtiter plate is incubated for 1 hour at room temperature after which time the microplate strips are washed 5 times with PBST and then loaded with 100 µL/well of streptavidin-HRP diluted 1:10000 in PBST/10% Superblock buffer. After incubating for 45 min, the microplate strips are washed again 5 times with PBST. TMB is added to reveal the bound Fc(gamma)RI proteins and is stopped with ELISA stop reagent (Boston Bioproducts). The plate is read in an ELISA plate reader at 450 nm, and the OD450 values (proportional to the binding of rhFc(gamma)RI to insulin-Fc protein) are plotted against log concentrations of rhFc(gamma)RI added to each well to generate binding curves using GraphPad Prism software. For groupings of compounds with somewhat similar curves, the OD450 at one of the higher concentrations, for instance at rhFc(gamma)RI concentrations of 3000 ng/mL, can be used to identify differences between coated insulin-Fc fusion protein compounds. […]
Finally, select compounds were tested for their likelihood to interact with the immune system by measuring their Fc(gamma) receptor binding activity according to the procedure of Example 15.

[7] = target: T1, human insulin receptor (IR) on human …; assay: competition with biotinylated RHI on IM-9 cells, flow cytometry, 4 C; remark: listed apart in the source
Method: as §1, §2

IC50 [1] | EC50 (biotinylated human FcRn) | OD450 Ratio (reference SEQ ID NO: 76) [2] | OD450 Ratio (reference SEQ ID NO: 76) [3] | IC50 [4] | EC50 (biotinylated canine FcRn) | IC50 [5] | OD450nm [6] | OD450nm minus assay background [6] | ratio to SEQ ID NO: 36 [6] | IC50 [7] | Binder
1.73 µM | 0.462 µg/mL | 0.045 | 0.309 |  |  |  |  |  |  |  | insulin-Fc fusion protein of SEQ ID NO: 75 (Fc fusion) FVNQHLCGSHLVEALELVCGERGFHYGGGGGGSGGGGGIVEQCCTSTCSLDQLENYCGGGGGQGGGGQGGGGQGGGGGECPPCPAPPVAGPSVFLFPPKPKDTLMISRTPEVTCVVVDVSHEDPEVQFNWYVDGVEVHNAKTKPREEQFNSTFRVVSVLTVVHQDWLNGKEYKCKVSNKGLPAPIEKTISKTKGQPREPQVYTLPPSREEMTKNQVSLTCLVKGFYPSDIAVEWESNGQPENNYKTTPPMLDSDGSFFLYSKLTVDKSRWQQGNVFSCSVMHEALHNHYTQKSLSLSPG
 |  |  |  | 2.34 µM | 0.599 µg/mL | 2.34 µM | 0.368 | 0.311 | 0.84 | 2.34 µM | insulin-Fc fusion protein of SEQ ID NO: 26 (Fc fusion, native N-glycosylation site cNg-NB151) FVNQHLCGSHLVEALELVCGERGFHYGGGGGGSGGGGGIVEQCCTSTCSLDQLENYCGGGGGQGGGGQGGGGQGGGGGDCPKCPAPEMLGGPSVFIFPPKPKDTLLIARTPEVTCVVVDLDPEDPEVQISWFVDGKQMQTAKTQPREEQFNGTYRVVSVLPIGHQDWLKGKQFTCKVNNKALPSPIERTISKARGQAHQPSVYVLPPSREELSKNTVSLTCLIKDFFPPDIDVEWQSNGQQEPESKYRTTPPQLDEDGSYFLYSKLSVDKSRWQRGDTFICAVMHEALHNHYTQESLSHSPG
